Source: patent US20250242020A1 (JUNO THERAPEUTICS, published 2025)

Legend:
[1] = target: recombinant human ROR1 extracellular domain with a C-terminal 6xHis tag (human) (UniProt Q01973); experiment: SPR (Biacore T200): scFv-mFc captured on anti-mouse IgG chip, ROR1 ECD 6xHis injected, multi-cycle kinetics, 1:1 model
[2] = target: recombinant human ROR1 extracellular domain with a C-terminal 6xHis tag (human) (UniProt Q01973); experiment: SPR (Biacore), scFv-mFc captured on an anti-mouse IgG chip, ROR1 ECD 6xHis injected at 183, 61.0, 20.33, 6.78 and 2.26 nM, multi-cycle kinetics, 1:1 Binding model, 25 °C
[3] = target: T1, human ROR1 expressed on cells (human, UniProt Q01973 30-937); experiment: plasma membrane protein array: immunohistochemistry on cells overexpressing individual human membrane proteins
T1 construct: also called hROR1; K562-ROR1-TetOn
T1 sequence (Q01973 30-937): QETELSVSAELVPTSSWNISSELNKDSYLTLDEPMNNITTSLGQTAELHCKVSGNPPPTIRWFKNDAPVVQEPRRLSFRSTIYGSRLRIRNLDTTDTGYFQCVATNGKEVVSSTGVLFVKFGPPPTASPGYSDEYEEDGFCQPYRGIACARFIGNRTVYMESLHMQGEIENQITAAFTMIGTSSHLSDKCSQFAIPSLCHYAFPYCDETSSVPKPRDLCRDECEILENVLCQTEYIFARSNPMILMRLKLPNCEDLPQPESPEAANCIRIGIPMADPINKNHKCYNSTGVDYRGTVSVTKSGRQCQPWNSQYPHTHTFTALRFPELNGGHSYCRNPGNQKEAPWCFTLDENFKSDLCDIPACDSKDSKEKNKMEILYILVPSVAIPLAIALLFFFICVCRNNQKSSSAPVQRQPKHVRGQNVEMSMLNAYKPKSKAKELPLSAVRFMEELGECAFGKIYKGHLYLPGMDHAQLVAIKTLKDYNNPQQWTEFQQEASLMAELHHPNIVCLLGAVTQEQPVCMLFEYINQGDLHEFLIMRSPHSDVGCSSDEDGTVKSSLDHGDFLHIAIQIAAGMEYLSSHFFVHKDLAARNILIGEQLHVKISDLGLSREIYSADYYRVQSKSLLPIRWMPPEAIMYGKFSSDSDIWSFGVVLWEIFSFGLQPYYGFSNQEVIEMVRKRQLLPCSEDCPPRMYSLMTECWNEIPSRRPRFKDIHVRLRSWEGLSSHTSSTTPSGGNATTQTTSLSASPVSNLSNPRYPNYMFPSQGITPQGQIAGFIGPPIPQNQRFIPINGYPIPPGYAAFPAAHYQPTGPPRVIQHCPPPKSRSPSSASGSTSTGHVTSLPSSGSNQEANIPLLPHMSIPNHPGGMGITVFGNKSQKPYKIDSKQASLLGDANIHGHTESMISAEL
Method: (§1) Off-target binding was assessed based on a plasma membrane protein array. This chip-based platform contains over 4400 groups of cells genetically engineered to overexpress individual human extracellular membrane proteins that together represent over 75% of the human extracellular proteome. The panel also includes over 1000 tethered secreted protein targets. An scFv-Fc (scFv sequence set forth in SEQ ID NO:118) was generated and used for immunohistochemistry (IHC) against the cells in the array. Confirmation screening was performed.

[4] = target: T2, human ROR2 expressed on cells of the plasma membrane protein array (human, UniProt Q01974 34-943); experiment: plasma membrane protein array: immunohistochemistry with scFv-Fc on cells overexpressing individual human membrane proteins, with confirmation screening
T2 construct: whole, on cells; also called receptor tyrosine kinase-like orphan receptor 2
T2 sequence (Q01974 34-943): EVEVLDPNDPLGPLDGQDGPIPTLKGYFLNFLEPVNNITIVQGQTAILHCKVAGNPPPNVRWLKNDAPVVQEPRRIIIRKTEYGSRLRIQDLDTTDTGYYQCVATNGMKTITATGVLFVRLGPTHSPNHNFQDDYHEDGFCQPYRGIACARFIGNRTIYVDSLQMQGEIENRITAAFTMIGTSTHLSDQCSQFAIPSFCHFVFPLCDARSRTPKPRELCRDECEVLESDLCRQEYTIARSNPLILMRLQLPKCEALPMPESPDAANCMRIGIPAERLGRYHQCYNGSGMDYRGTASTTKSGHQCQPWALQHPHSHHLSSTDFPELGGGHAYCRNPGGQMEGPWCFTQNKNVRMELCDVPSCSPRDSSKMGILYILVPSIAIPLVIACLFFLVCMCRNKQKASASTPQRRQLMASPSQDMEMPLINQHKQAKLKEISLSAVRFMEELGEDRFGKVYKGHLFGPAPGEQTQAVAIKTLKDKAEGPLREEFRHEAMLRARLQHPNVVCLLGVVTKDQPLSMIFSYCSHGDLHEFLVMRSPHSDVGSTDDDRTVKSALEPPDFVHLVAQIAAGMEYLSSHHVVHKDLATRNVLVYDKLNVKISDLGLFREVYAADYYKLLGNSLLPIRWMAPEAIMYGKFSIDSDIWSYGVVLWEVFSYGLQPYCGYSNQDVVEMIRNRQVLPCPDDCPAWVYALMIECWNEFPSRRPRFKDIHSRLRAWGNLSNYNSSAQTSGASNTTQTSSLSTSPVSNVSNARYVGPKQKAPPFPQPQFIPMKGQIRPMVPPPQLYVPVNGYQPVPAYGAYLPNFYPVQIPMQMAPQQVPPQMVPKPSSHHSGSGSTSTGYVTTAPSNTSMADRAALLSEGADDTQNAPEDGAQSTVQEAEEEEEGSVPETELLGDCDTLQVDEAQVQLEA
Method: as §1

[5] = target: recombinant human ROR1 extracellular domain with a C-terminal 6xHis tag (human) (UniProt Q01973); experiment: SPR (Biacore), scFv-mFc captured on an anti-mouse IgG chip, ROR1 ECD 6xHis injected in a concentration series up to 183 nM, multi-cycle kinetics, 1:1 Binding model, 25 °C

Chain of recombinant human ROR1 extracellular domain with a C-terminal 6xHis tag (human) (Q01973 other isoform, or with tags, fused parts or gaps): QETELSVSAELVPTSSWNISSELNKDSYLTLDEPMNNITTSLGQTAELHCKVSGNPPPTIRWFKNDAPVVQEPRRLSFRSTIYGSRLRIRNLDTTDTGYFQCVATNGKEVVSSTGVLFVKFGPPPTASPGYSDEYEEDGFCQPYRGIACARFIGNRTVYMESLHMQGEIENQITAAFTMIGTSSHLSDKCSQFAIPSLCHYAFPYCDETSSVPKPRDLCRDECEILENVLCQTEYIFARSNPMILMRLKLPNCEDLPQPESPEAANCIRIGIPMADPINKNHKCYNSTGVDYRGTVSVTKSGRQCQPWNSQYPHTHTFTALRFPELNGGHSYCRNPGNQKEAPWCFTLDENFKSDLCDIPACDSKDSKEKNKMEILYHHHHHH

Row | Binder | Kd [1] | koff [1] | kon [1] | Kd [2] | koff [2] | kon [2] | binding result [3] | binding result [4] | Kd [5] | koff [5] | kon [5]
1 | anti-ROR1 scFv ROR1-3 fused to murine IgG2a Fc (scFv-mFc) (Fc fusion, part only; not given: murine IgG2a Fc and junction, not shown: another chain or arm of the molecule; a dimerising Fc or GST) scFv: QVQLVQSGAEVKKPGASVKVSCKASGYTFTSYGISWVRQAPGQGLEWMGWISAYNGNTKYAQKLQGRVTMTTDTSTSTAYMELRSLRSDDTAVYYCARDEDILTGYNYYGMDVWGQGTTVTVSSGGGGSGGGGSGGGGSQLVLTQSPSASASLGASVKLTCTLSSGHSSYAIAWHQQQPEKGPRYLMKLNSDGSHSKGDGIPDRFSGSSSGAERYLTISSLQSEDEADYYCQTWGTGIRVFGGGTKLTVLG | 0.924 nM | 1.08e-05 s⁻¹ | 11700 M⁻¹ s⁻¹ | 0.924 nM | 1.08e-05 s⁻¹ | 11700 M⁻¹ s⁻¹ |  |  |  |  | 
2 | anti-ROR1 scFv ROR1-2 fused to murine IgG2a Fc (scFv-mFc) (Fc fusion, part only; not given: murine IgG2a Fc and junction, not shown: another chain or arm of the molecule; a dimerising Fc or GST) scFv: QLQLQESGPGLVKPSETLSLTCTVSGGSINSTTSYWAWIRQPPGKGLEWIGTIFYSGKTYNNPSLKSRVTMSVDTSKNHFSLKVNSVTAADTAVYYCARFDYGFHDAFDIWGQGTMVTVSSGGGGSGGGGSGGGGSEIVMTQSPATLSLSPGERATLSCRASQSITSDYLSWYQQKPGQAPRLLIYGASTRATGIPARFSGSGSGTDFTLTISSLQPEDFVVYYCQQDYNLYTFGQGTKLEIKR | 0.0957 nM | 3.94e-05 s⁻¹ | 412000 M⁻¹ s⁻¹ | 0.0956 nM | 3.94e-05 s⁻¹ | 412000 M⁻¹ s⁻¹ |  |  |  |  | 
3 | anti-ROR1 scFv ROR1-1 fused to murine IgG2a Fc (scFv-mFc) (Fc fusion, part only; not given: murine IgG2a Fc and junction, not shown: another chain or arm of the molecule; a dimerising Fc or GST) scFv: QVQLQESGPGLVKPSETLSLTCTVSGGSISNYYWSWIRQPAGKGLEWIGRIYTSGSTNYNPSLKSRVTMSVDTSKNQFSLKLSSLTAADTAIYYCARYYDILTGFFDYWGQGTLVTVSSGGGGSGGGGSGGGGSVIWMTQSPSLLSASTGDSVTISCRMSQDISSYLAWYQQKPGKAPELLIYAASSLQSGVPSRFSGSGSGTDFTLTISSLQSEDFATYYCQQYDSFPPTFGQGTKVEFKR | 42 nM | 0.005 s⁻¹ | 119000 M⁻¹ s⁻¹ | 42 nM | 0.005 s⁻¹ | 119000 M⁻¹ s⁻¹ |  |  |  |  | 

Results, then the binder that gave them:

Row | Kd [1] | koff [1] | kon [1] | Kd [2] | koff [2] | kon [2] | binding result [3] | binding result [4] | Kd [5] | koff [5] | kon [5] | Binder
4 | 13.8 nM | 0.00022 s⁻¹ | 16000 M⁻¹ s⁻¹ | 13.8 nM | 0.00022 s⁻¹ | 16000 M⁻¹ s⁻¹ |  |  |  |  |  | anti-ROR1 scFv ROR1-4 fused to murine IgG2a Fc (scFv-mFc) (Fc fusion, part only; not given: murine IgG2a Fc and junction, not shown: another chain or arm of the molecule; a dimerising Fc or GST) scFv: QVQLLQSGAEVKKPGASVKVSCKASGYTFTSYGISWVRQAPGQGLEWMGWISAYTGNTRYAQKLQGRVTMTTDTSTSTAYMELRSLRSDDTAVYYCAREEGATTDYDYYGMDVWGQGTAVTVSSGGGGSGGGGSGGGGSQLVLTQSPSASASLGASVKLTCTLSSGHSSYAIAWHQQQPEKGPRYLMKLNSDGSHSKGDGIPDRFSGSSSGAERYLTISSLQSEDEADYYCQTWGTGIRVFGGGTKLTVLG
5 |  |  |  |  |  |  | binds | no binding |  |  |  | scFv-Fc of the binding domain of anti-ROR1 CAR-F (scFv SEQ ID NO:118), used on the plasma membrane protein array (Fc fusion, also called the scFv; not shown: Fc) QVQLQESGPGLVKPSETLSLTCTVSGGSISNYYWSWIRQPAGKGLEWIGRIYTSGSTNYNPSLKSRVTMSVDTSKNQFSLKLSSLTAADTAIYYCARYYDILTGFFDYWGQGTLVTVSSGGGGSGGGGSGGGGSVIWMTQSPSLLSASTGDSVTISCRMSQDISSYLAWYQQKPGKAPELLIYAASSLQSGVPSRFSGSGSGTDFTLTISSLQSEDFATYYCQQYDSFPPTFGQGTKVEFKR
6 | 0.942 nM | 0.000579 s⁻¹ | 614000 M⁻¹ s⁻¹ |  |  |  |  |  | 0.942 nM | 0.000579 s⁻¹ | 614000 M⁻¹ s⁻¹ | reference R12 scFv fused to murine IgG2a Fc (scFv-mFc) (Fc fusion, part only; not given: murine IgG2a Fc and junction, not shown: another chain or arm of the molecule; a dimerising Fc or GST) scFv: QEQLVESGGRLVTPGGSLTLSCKASGFDFSAYYMSWVRQAPGKGLEWIATIYPSSGKTYYATWVNGRFTISSDNAQNTVDLQMNSLTAADRATYFCARDSYADDGALFNIWGPGTLVTISSGGGGSGGGGSGGGGSELVLTQSPSVSAALGSPAKITCTLSSAHKTDTIDWYQQLQGEAPRYLMQVQSDGSYTKRPGVPDRFSGSSSGADRYLIIPSVQADDEADYYCGADYIGGYVFGGGTQLTVTG
